Measurements from US20090081207A1 (published 2009).
“And” between values parts separate entries of the source, which are not always exact repeats. Equal values may be shown once.

Columns and labels:
human α5β1 integrin = human α5β1 integrin (human, UniProt P08648 42-1049; P05556 21-798); test: cell-based or functional assay
[1] = target: T1, β1-integrin chain on HT29 wt cells (α5-chain negative) (human, UniProt P05556 21-798); test: FACS on HT29 wt cells, labelled secondary antibody
T1 construct: whole, on cells; Negative cell control: β1 present at high density, α5 absent
T1 sequence (P05556 21-798): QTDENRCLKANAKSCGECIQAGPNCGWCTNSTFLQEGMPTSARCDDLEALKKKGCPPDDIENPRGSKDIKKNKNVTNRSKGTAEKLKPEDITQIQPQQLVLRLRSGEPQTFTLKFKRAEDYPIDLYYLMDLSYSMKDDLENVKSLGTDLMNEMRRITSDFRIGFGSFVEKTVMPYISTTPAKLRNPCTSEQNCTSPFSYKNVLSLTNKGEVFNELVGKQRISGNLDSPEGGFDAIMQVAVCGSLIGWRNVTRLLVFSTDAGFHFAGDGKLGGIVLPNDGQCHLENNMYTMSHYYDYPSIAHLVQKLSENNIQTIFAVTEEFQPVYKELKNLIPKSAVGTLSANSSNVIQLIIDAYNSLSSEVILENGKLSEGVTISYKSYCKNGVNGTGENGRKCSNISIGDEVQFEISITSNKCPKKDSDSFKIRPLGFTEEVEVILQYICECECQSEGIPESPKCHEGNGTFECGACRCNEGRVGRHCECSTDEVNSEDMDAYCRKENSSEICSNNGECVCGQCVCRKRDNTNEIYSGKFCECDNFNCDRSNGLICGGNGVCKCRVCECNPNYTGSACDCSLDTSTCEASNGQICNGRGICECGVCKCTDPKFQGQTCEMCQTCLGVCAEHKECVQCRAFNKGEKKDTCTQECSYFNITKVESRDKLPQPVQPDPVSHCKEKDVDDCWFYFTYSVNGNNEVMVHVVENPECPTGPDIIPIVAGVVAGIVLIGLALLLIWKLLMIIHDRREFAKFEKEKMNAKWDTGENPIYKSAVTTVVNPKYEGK
Procedure: Affinity matured IgG antibodies were incubated at 10 μg/mL with 5×10⁵ HT29 wt and HT29α5 cells. Specifically bound antibodies were detected with a Cy3-labelled secondary antibody. Upper panel: IIA1 incubated with HT29 wt (left) or HT29α5-cells (right), lower panel: IgG1 MOR04974. The fluorescence shift indicates specific binding to α5 integrin and was found for MOR04975, MOR04977, MOR04985 and MOR04624 (grey area). Antibody isotype controls are negative (black lines (b)). Our anti-integrin antibodies bind to α5-chain transfected cells with the same specificity as the reference antibody IIA1.
Affinity matured antibodies of the IgG-format were tested for their binding specificity by FACS analysis on HT29 wt vs. HT29α5 cells. HT29 wt cells are α5-negative but do contain the β1-integrin chain. HT29α5 but not the HT29 wt cells are specifically recognized by the IgG1-anti-integrin antibodies and the reference antibody IIA1 as indicated by the fluorescence shift. (FIG. 12).

Sequence of human α5β1 integrin (P08648 42-1049, chain 1 of 2): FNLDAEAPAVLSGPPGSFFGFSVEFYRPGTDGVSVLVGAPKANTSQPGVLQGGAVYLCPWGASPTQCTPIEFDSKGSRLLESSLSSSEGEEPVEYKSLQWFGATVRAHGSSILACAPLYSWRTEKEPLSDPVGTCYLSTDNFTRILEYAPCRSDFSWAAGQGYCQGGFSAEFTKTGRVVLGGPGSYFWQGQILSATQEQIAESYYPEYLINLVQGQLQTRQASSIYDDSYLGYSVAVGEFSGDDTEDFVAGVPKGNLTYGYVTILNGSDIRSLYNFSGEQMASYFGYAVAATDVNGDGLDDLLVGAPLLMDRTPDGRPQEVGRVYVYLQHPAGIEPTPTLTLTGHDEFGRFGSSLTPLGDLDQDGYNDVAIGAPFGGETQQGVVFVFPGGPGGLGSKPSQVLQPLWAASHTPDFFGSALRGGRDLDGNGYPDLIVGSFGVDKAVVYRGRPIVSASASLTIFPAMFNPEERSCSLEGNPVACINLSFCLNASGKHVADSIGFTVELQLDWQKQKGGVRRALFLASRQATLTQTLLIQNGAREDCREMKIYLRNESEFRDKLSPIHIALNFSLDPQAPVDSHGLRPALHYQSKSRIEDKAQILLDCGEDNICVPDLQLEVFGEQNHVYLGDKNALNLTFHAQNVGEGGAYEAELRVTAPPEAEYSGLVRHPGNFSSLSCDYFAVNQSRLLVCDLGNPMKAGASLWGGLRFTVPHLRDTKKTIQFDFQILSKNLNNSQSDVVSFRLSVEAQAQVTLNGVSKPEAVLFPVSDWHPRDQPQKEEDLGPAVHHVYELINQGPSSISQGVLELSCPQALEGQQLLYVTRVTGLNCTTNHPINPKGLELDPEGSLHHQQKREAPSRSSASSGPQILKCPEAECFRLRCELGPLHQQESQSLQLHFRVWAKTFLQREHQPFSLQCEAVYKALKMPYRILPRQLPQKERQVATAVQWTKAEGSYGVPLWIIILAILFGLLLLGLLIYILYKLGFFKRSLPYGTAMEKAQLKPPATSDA
Sequence of human α5β1 integrin (P05556 21-798, chain 2 of 2): as the sequence (P05556 21-798) above

EC50, inhibition of HUVEC adhesion to fibronectin (human α5β1 integrin): 0.4 µg/ml and 2.7 nM
binding result [1]: no binding (tested: 10 µg/mL)
B1: MOR04974 IgG1 (antibody, V domains shown)
VH: QVQLVESGGGLVQPGGSLRLSCAASGFTFSSYGMSWVRQAPGKGLEWVSGIRAKQSGYATDYAAPVKGRFTISRDNSKNTLYLQMNSLRAEDTAVYYCARGLGDYGHHHGLSGIFDYWGQGTLVTVSS
VL: DIQMTQSPSSLSASVGDRVTITCRASQGISSNLNWYQQKPGKAPKLLIYAASNLQSGPSRFSGSGSGTDFTLTISSLQPEDFATYYCQQYASPRQTFGQGTKVEIKR
notes: also called IgG1 MOR04974
